Data: patent publication US20230265179A1 (TWIST BIOSCIENCE, published 2023)

B1: IL1RL2-53 (VHH)
VHH: EVQLVESGGGLVQPGGSLRLSCAASGSTFSPNVMGWFRQAPGKEREFVAAITWSGSSTTEYADSVKGRFTISADNSKNTAYLQMNSLKPEDTAVYYCAAANEYWVYVNPNRYTWGQGTLVTVSS
notes: VHH-Fc based on IgG2 Fc
B2: IL1RL2-47 (VHH)
VHH: EVQLVESGGGLVQPGGSLRLSCAASGGTFSNYAMGWFRQAPGKEREFVAAIGGVTDYADSVKGRFTISADNSKNTAYLQMNSLKPEDTAVYYCAAFAYEEGVYRWDWGQGTLVTVSS
notes: VHH-Fc based on IgG2 Fc
B3: IL1RL2-28 (VHH)
VHH: EVQLVESGGGLVQPGGSLRLSCAASGFTLNDYAMGWFRQAPGKEREWVSSINWSGSTYYADSVKGRFTISADNSKNTAYLQMNSLKPEDTAVYYCAKAYSSSWPYFDYWGQGTLVTVSS
notes: VHH-Fc based on IgG2 Fc
B4: IL1RL2-52 (VHH)
VHH: EVQLVESGGGLVQPGGSLRLSCAASGRTSTYDMGWFRQAPGKEREFVGAISWSGGLTSYADSVKGRFTISADNSKNTAYLQMNSLKPEDTAVYYCADVNGDWGQGTLVTVSS
notes: VHH-Fc based on IgG2 Fc
B5: IL1RL2-162 (antibody, V domains shown)
VH: EVQLLESGGGLVQPGGSLRLSCAASGFTFNHYGMGWVRQAPGKGLEWVSSIGANGAPTYYADSVKGRFTISRDNSKNTLYLQMNSLRAEDTAVYYCAKSYLSGTFDYWGQGTLVTVSS
VL: DIQMTQSPSSLSASVGDRVTITCQGGSPRSYYASWYQQKPGKAPKLLIYHTSRLQDGVPSRFSGSGSGTDFTLTISSLQPEDFATYYCQSYDKSNVVFGQGTKVEIK
notes: IgG2
B6: IL1RL2-45 (VHH)
VHH: EVQLVESGGGLVQPGGSLRLSCAASGFDFSVSWMGWFRQAPGKEREFVGSIDWITTNIYYADSVKGRFTISADNSKNTAYLQMNSLKPEDTAVYYCAANIEAGTTKSQGWGQGTLVTVSS
notes: VHH-Fc based on IgG2 Fc
B7: IL1RL2-173 (antibody, V domains shown)
VH: EVQLLESGGGLVQPGGSLRLSCAASGFTFSEYGMWWVRQAPGKGLEWVSEISPSGGYTYYADSVKGRFTISRDNSKNTLYLQMNSLRAEDTAVYYCAEQDVKGSSSFDYWGQGTLVTVSS
VL: DIQMTQSPSSLSASVGDRVTITCRPNQNIATYINWYQQKPGKAPKLLIYQMSHLASGVPSRFSGSGSGTDFTLTISSLQPEDFATYYCQQSYSTPSFGQGTKVEIK
notes: IgG2
B8: IL1RL2-38 (VHH)
VHH: EVQLVESGGGLVQPGGSLRLSCAASGRSRYGMGWFRQAPGKEREFVAAINWNGASTYYADSVKGRFTISADNSKNTAYLQMNSLKPEDTAVYYCAVSQPLNYYTYYDARRYDWGQGTLVTVSS
notes: VHH-Fc based on IgG2 Fc
B9: IL1RL2-44 (VHH)
VHH: EVQLVESGGGLVQPGGSLRLSCAASGRSFSTYDMGWFRQAPGKERELVAAISWSGGSTYYADSVKGRFTISADNSKNTAYLQMNSLKPEDTAVYYCADVNGDWGQGTLVTVSS
notes: VHH-Fc based on IgG2 Fc
B10: IL1RL2-48 (VHH)
VHH: EVQLVESGGGLVQPGGSLRLSCAASGRTFSSYDMGWFRQAPGKERELVAAITWNSGSTLYADSVKGRFTISADNSKNTAYLQMNSLKPEDTAVYYCADVNGDWGQGTLVTVSS
notes: VHH-Fc based on IgG2 Fc
B11: IL1RL2-56 (VHH)
VHH: EVQLVESGGGLVQPGGSLRLSCAASGRTFSTYDMGWFRQAPGKEREFVAAISWGGGLTVYADSVKGRFTISADNSKNTAYLQMNSLKPEDTAVYYCADVNGDWGQGTLVTVSS
notes: VHH-Fc based on IgG2 Fc
B12: IL1RL2-181 (antibody, V domains shown)
VH: EVQLLESGGGLVQPGGSLRLSCAASGFTFGQESMYWVRQAPGKGLEWVSGITRSGSTNYRDSVKGRFTISRDNSKNTLYLQMNSLRAEDTAVYYCAKQLGEEFDYWGQGTLVTVSS
VL: DIQMTQSPSSLSASVGDRVTITCTGDKLAEKYVSWYQQKPGKAPKLLIYAKNNRPSGVPSRFSGSGSGTDFTLTISSLQPEDFATYYCQQWSSNPLTFGQGTKVEIK
notes: IgG2
B13: IL1RL2-170 (antibody, V domains shown)
VH: EVQLLESGGGLVQPGGSLRLSCAASGFTFPVYNMAWVRQAPGKGLEWVSSISGYGSTTYYADSVKGRFTISRDNSKNTLYLQMNSLRAEDTAVYYCAKSYGAFDYWGQGTLVTVSS
VL: DIQMTQSPSSLSASVGDRVTITCSASQDINKYLNWYQQKPGKAPKLLIYHTSRLQDGVPSRFSGSGSGTDFTLTISSLQPEDFATYYCQQSYTTPWTFGQGTKVEIK
notes: IgG2
B14: IL1RL2-167 (antibody, V domains shown)
VH: EVQLLESGGGLVQPGGSLRLSCAASGFTFSNYGVSWVRQAPGKGLEWVSGITRSGSTNYRDSVKGRFTISRDNSKNTLYLQMNSLRAEDTAVYYCAKGRRIFDYWGQGTLVTVSS
VL: DIQMTQSPSSLSASVGDRVTITCSGDKLGHTYTSWYQQKPGKAPKLLIYGKKNRPSGVPSRFSGSGSGTDFTLTISSLQPEDFATYYCQQSYSTPGITFGQGTKVEIK
notes: IgG2
B15: IL1RL2-178 (antibody, V domains shown)
VH: EVQLLESEGGLVQPGGSLRLSCAASGFTFSGYDMQWVRQAPGKGLEWVSSISSTGFKTYYADSVKGRFTISRDNSKNTLYLQMNSLRAEDTAVYYCAKAGPPFAGSRGNSFDYWGQGTLVTVSS
VL: DIQMTQSPSSLSASVGDRVTITCSGDNLRGYYASWYQQKPGKAPKLLIYGTSDLQSGVPSRFSGSGSGTDFTLTISSLQPEDFATYYCYSRDRSGNHLGMFGQGTKVEIK
notes: IgG2
B16: IL1RL2-158 (antibody, V domains shown)
VH: EVQLLESGGGLVQPGGSLRLSCAASGFTFSSYFMSWVRQAPGKGLEWVSEISPSGSETYYADSVKGRFTISRDNSKNTLYLQMNSLRAEDTAVYYCARAYSSGWSLPFDYWGQGTLVTVSS
VL: DIQMTQSPSSLSASVGDRVTITCRASQGVRTSLAWYQQKPGKAPKLLIYATSTLQSGVPSRFSGSGSGTDFTLTISSLQPEDFATYYCAQGLRKPKTFGQGTKVEIK
notes: IgG2
B17: IL1RL2-26 (VHH)
VHH: EVQLVESGGGLVQPGGSLRLSCAASGSIFSIYDMGWFRQAPGKEREFVAAISGWSGGRTSYADSVKGRFTISADNSKNTAYLQMNSLKPEDTAVYYCAAIAYEEGVYRWDWGQGTLVTVSS
notes: VHH-Fc based on IgG2 Fc
B18: IL1RL2-51 (VHH)
VHH: EVQLVESGGGLVQPGGSLRLSCAASGFTFSPSWMGWFRQAPGKEREWVSSIDYSAEDTYYADSVKGRFTISADNSKNTAYLQMNSLKPEDTAVYYCAAFDGYSGSDWGQGTLVTVSS
B19: IL1RL2-156 (antibody, V domains shown)
VH: EVQLLESGGGLVQPGGSLRLSCAASGFTFSSYWNHWVRQAPGKGLEWVSTIGPSGTSTYYADSVKGRFTISRDNSKNTLYLQMNSLRAEDTAVYYCAKSTPNIPLAYWGQGTLVTVSS
VL: DIQMTQSPSSLSASVGDRVTITCRASQSIRRYLNWYQQKPGKAPKLLIYDASSSQSGVPSRFSGSGSGTDFTLTISSLQPEDFATYYCQQSTILPLTFGQGTKVEIK
notes: IgG2
B20: IL1RL2-33 (VHH)
VHH: EVQLVESGGGLVQPGGSLRLSCAASGRSFNLYYMGWFRQAPGKEREFVASIFTDDGDSYYADSVKGRFTISADNSKNTAYLQMNSLKPEDTAVYYCAAGAGWAGTMTDYNWGQGTLVTVSS
notes: VHH-Fc based on IgG2 Fc
B21: IL1RL2-46 (VHH)
VHH: EVQLVESGGGLVQPGGSLRLSCAASGFTLGDYVMGWFRQAPGKEREFVATIRWGTTDTYYADSVKGRFTISADNSKNTAYLQMNSLKPEDTAVYYCQSWYYDILTGYSDYYYMDVWGQGTLVTVSS
notes: VHH-Fc based on IgG2 Fc
B22: IL1RL2-50 (VHH)
VHH: EVQLVESGGGLVQPGGSLRLSCAASGSIFSIDAMGWFRQAPGKERESVAIIKTDGSTYYADSVKGRFTISADNSKNTAYLQMNSLKPEDTAVYYCAHRLGYCSGGSCYWPNYFDYWGQGTLVTVSS
notes: VHH-Fc based on IgG2 Fc
B23: IL1RL2-184 (antibody, V domains shown)
VH: EVQLLESGGGLVQPGGSLRLSCAASGFTFSDYDMSWVRQAPGKGLEWVSSISPSGGWTEYADSVKGRFTISRDNSKNTLYLQMNSLRAEDTAVYYCARHDYSNYPYFDYWGQGTLVTVSS
VL: DIQMTQSPSSLSASVGDRVTITCRASQTIGDYLNWYQQKPGKAPKLLIYTASNLQNGVPSRFSGSGSGTDFTLTISSLQPEDFATYYCQQGFSNPWTFGQGTKVEIK
notes: IgG2
B24: IL1RL2-40 (VHH)
VHH: EVQLVESGGGLVQPGGSLRLSCAASGFTFSTYTMGWFRQAPGKEREFVAGIAWNGASGTLTSYADSVKGRFTISADNSKNTAYLQMNSLKPEDTAVYYCASAGRWGQGTLVTVSS
notes: VHH-Fc based on IgG2 Fc
B25: IL1RL2-176 (antibody, V domains shown)
VH: EVQLLESGGGLVQPGGSLRLSCAASGFTFSNSYISWVRQAPGKGLEWVSSIRGSSSSTYYADSVKGRFTISRDNSKNTLYLQMNSLRAEDTAVYYCARSYGGGFDYWGQGTLVTVSS
VL: DIQMTQSPSSLSASVGDRVTITCSGDNLRGYYASWYQQKPGKAPKLLIYQNDKRPSGVPSRFSGSGSGTDFTLTISSLQPEDFATYYCFQGSHAPLTFGQGTKVEIK
notes: IgG2

These binders were tested against T1, IL1RL2 over-expressed on Expi293 cells (UniProt Q9HB29 20-575, limits assumed) (assay: flow cytometry, over-expressing Expi293 vs parent cells, 100 nM antibody;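 note: ratio is mean fluorescence intensity on over-expressing Expi293 cells divided by that measured on parental Expi293 cells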).
T1 construct: whole, on cells; Target of the flow cytometry assay; MFI ratio is over-expressing cells over parent cells
T1 sequence (looked up): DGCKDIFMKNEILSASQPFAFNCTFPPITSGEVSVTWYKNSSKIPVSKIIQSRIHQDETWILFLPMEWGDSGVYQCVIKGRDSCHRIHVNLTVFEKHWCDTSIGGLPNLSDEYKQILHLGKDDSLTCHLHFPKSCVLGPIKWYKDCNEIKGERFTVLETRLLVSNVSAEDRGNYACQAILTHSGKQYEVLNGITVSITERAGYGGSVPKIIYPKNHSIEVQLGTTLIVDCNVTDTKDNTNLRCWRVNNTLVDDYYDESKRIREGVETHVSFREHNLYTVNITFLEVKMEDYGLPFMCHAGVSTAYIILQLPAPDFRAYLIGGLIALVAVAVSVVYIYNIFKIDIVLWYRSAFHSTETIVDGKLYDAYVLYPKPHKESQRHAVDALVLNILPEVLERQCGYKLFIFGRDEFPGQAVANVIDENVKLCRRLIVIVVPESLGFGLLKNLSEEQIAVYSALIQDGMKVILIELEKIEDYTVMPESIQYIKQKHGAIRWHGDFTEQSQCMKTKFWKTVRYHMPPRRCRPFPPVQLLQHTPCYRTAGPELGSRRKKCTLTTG
Procedure: All incubations and washes were in buffer containing PBS+1% BSA. MFI Ratio is defined by the mean fluorescence intensity (MFI) of the cytokine over-expressing Expi293 cell over the Expi293 parent cell. […] EC50 was calculated in GraphPad Prism.
For B1, the “100 nM FACS (MFI Ratio)” value was 4.14.
With B2 the “100 nM FACS (MFI Ratio)” value was 13.2.
B3 was tested, and the “100 nM FACS (MFI Ratio)” value was 13.6.
For B4, the “100 nM FACS (MFI Ratio)” value was 6.88.
In the case of B5, the “100 nM FACS (MFI Ratio)” value is reported as 4.26.
For B6, the “100 nM FACS (MFI Ratio)” value was 6.82.
In the case of B7, the “100 nM FACS (MFI Ratio)” value is reported as 11.2.
With B8 the “100 nM FACS (MFI Ratio)” value was 7.41.
For B9, the “100 nM FACS (MFI Ratio)” value was 0.95.
For B10, the “100 nM FACS (MFI Ratio)” value was 7.83.
With B11 the “100 nM FACS (MFI Ratio)” value was 3.83.
In the case of B12, the “100 nM FACS (MFI Ratio)” value is reported as 1.02.
For B13, the “100 nM FACS (MFI Ratio)” value was 3.95.
B14 was tested, and the “100 nM FACS (MFI Ratio)” value was 3.08.
With B15 the “100 nM FACS (MFI Ratio)” value was 37.
B16 was tested, and the “100 nM FACS (MFI Ratio)” value was 14.8.
B17 was tested, and the “100 nM FACS (MFI Ratio)” value was 39.5.
In the case of B18, the “100 nM FACS (MFI Ratio)” value is reported as 9.68.
For B19, the “100 nM FACS (MFI Ratio)” value was 0.69.
B20 was tested, and the “100 nM FACS (MFI Ratio)” value was 15.2.
B21 was tested, and the “100 nM FACS (MFI Ratio)” value was 15.6.
For B22, the “100 nM FACS (MFI Ratio)” value was 151.
In the case of B23, the “100 nM FACS (MFI Ratio)” value is reported as 3.19.
For B24, the “100 nM FACS (MFI Ratio)” value was 31.
For B25, the “100 nM FACS (MFI Ratio)” value was 0.72.
